From paper PMC5095173, “Disulfide-activated protein kinase G Iα regulates cardiac diastolic relaxation and fine-tunes the Frank–Starling response” (Nature Communications, 2016)

Columns and labels:
C42S PKGIα (human) = assay: ITC; PLN (1–23) (700 μM) titrated into the cell containing WT disulfide PKGIα or the C42S mutant (70 μM); 25 °C; 50 mM sodium phosphate buffer pH 7.4, 100 mM NaCl; no cyclic nucleotide
[1] = biological target: PKGIα (WT mouse heart) (mouse (endogenous in mouse heart)) (UniProt P0C605); assay: cross-linking; intermolecular disulfide dimer of PKGIα in perfused mouse hearts (0 or 5 mm Hg EDP), homogenised with 100 mM maleimide, SDS-PAGE without reducing agent and immunoblot
[2] = biological target: Cardiac phospholamban (rat heart homogenate) (rat (endogenous in rat left ventricle)) (UniProt P61016)
[3] = biological target: PKGIα M438G (analogue-sensitive mutant), disulfide dimer (human); assay: cross-linking; intermolecular Cys42 disulfide of purified recombinant PKGIα (lipoic acid or air oxidation) seen as dimer by SDS-PAGE

N-terminally acetylated peptide of the N-terminal cytoplasmic domain of human phospholamban, PLN (amino acid 1-23), sequence (P26678 1-23): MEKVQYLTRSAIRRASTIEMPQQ
PKGIα (WT mouse heart), sequence (P0C605 2-671): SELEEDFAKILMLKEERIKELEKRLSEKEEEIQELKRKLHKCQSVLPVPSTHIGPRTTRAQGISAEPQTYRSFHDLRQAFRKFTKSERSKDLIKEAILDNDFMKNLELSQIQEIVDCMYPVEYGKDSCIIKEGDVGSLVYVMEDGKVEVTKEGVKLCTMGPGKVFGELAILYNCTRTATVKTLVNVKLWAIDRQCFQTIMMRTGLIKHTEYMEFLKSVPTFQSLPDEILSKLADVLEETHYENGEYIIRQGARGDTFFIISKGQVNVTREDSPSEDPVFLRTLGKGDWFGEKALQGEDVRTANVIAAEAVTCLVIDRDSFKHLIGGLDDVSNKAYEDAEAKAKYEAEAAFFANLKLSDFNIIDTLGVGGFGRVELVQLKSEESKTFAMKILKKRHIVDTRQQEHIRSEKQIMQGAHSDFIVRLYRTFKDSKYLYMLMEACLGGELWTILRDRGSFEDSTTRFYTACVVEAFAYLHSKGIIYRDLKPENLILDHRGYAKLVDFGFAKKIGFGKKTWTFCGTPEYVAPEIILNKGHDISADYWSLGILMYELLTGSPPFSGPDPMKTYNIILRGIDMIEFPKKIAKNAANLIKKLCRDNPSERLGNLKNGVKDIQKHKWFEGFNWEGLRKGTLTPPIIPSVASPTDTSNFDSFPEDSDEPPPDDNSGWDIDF
Cardiac phospholamban (rat heart homogenate) (rat (endogenous in rat left ventricle)), sequence (P61016 whole entry): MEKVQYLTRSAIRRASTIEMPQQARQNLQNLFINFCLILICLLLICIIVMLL

N-terminally acetylated peptide of the N-terminal cytoplasmic domain of human phospholamban, PLN (amino acid 1-23) (from UniProt P26678 1-23)
fold change of Kd against WT PKGIα disulfide dimer (C42S PKGIα (human)): > 5 fold

PKGIα (WT mouse heart) (from UniProt P0C605 1-671) (enzyme)
stoichiometry N [1]: 2

PKGIα M438G (analogue-sensitive mutant), disulfide dimer (enzyme)
log2 fold change in abundance of the PLN pSer16 phosphopeptide (thiophosphorylation in rat heart homogenate), disulfide-activated PKGIα M438G versus basal PKGIα C42S/M438G control (log2 fold change) [2]: 0.41 | stoichiometry N [3]: 2
